The DeepSol protein solubility set

Experiment: soluble on expression in E. coli; label from the status in PepcDB or PDB records

Sequence	soluble on expression in E. coli
MGSDKIHHHHHHMDNKEKEDEELSDELKDQPGPSEKPRTPTVVAFTKPSFYRVNTVISDVKVCRSMSYDMCGNHQQELLFDLYKDETTGKVYLPRFFKALLESGIRKDDPRIDKMIQNIKDADLLDDFVWGTQHIYLEKDTFKRYIGSSIGVVTKALKKQMIIPDWERFVSDMGEIFEDVRSHNEGDLATYIPQLSRVAPDSWAMSVCTIDGQRKMWGDALKPFCLQSVSKPFTYALVHDDIGPEELHAHVGQEPSGRLFNDISLDHNKKPHNPLINAGAIVVASLLKNKLPLADRFDFMIHACRKFVGSGYIGFDNSVFLSERETADRNYALSYYMREHKVFPKDLNLQDTLDLYFQICSIETNCDSLAVMAATLANGGVNPMNGERIVNNRACRDTLSLMYSCGMYDWSGQFAFHVGLPAKSGVSGDMIIVIPNVMGIALYSPRLDKLGNTVRGVKFAEQLVQKYNFHNYDSLIYSDNKKIDPRRQLKDDHDGQNRFMYATKLGDIAAIKRFLLMGHDIHCKDYDDRTVLHVAAAEGDVVTLEYVLSKWQEDPNPCDRYDRTPLDDAKHFNHTACVKLLEEAITVYNLKGQDD	not soluble
MDNKTYEISSAEWEVMNIIWMKKYASANNIIEEIQMQKDWSPKTIRTLITRLYKKGFIDRKKDNKIFQYYSLVEESDIKYKTSKNFINKVYKGGFNSLVLNFVEKEDLSQDEIEELRNILNKK	soluble
MPRYTESEWLTDFIIDALDSGRFWGVGWLDEQKRIFTVPGRNRRERMPEGFDDFYEAFLEERRRHGLPEIPETETGLGCFGRLLRTANRARQERPFTIYKGKMKLNRWIMTPRPYKGCEGCLVYLTQEPAMKNMLKALFGIYPHDDKHREKALRRSLRKKAQRREAARKQAAAVATPTTSSAAEVSSRSQSEDTESSDSENELWVGAQGFVGRDMHSLFFEEPEPSGFGSSGQSSSLLAPDSPRPSTSQVQGPLHVHTPTDLCLPTGGLPSPVIFPHETQGLLAPPAGQSQTPFSPEGPVPSHVSGLDDCLPMVDHIEGCLLDLLSDVGQELPDLGDLGELLCETASPQGPMQSEGGEEGSTESVSVLPATHPLESSAPGASVMGSGQELPDLGDLSELLCETASPQGPMQSEGGEEGSTESVSVLPATHPLESSAPGASVMGSSFQASDNVDDFIDCIPPLCRDDRDVEDQEKADQTFYWYGSDMRPKVLTATQSVAAYLSKKQAIYKVGDKLVPLVVEVYYFGEKVKTHFDLTGGIVICSQVPEASPEHICQTVPPYKCLLPRTAHCSVDANRTLEQTLDRFSMGVVAIGTNMGIFLKGLLEYPAYFVGNASRRRIGKCRPLSHRHEIQQAFDVERHNREPEGSRYASLFLGRRPSPEYDSDHYPVILHIYLAPFYHRD	not soluble
GPVGYGAATTGGGNKVPVNVATFEAMQSAIDSYSGSGGLVLNYTGKFDFGTIKDVCAQWKLPAKTVQIKNKSDVTIKGANGSAANFGIRVVGNAHNVIIQNMTIGLLQGGEDADSISLEGNSSGEPSKIWVDHNTVFASLTKCSGAGDASFDGGIDMKKGVHHVTVSYNYVYNYQKVALNGYSDSDTKNSAARTTYHHNRFENVESRVPLQRFGLSHIYNNYFNNVTTSGINVRMGGIAKIESNYFENIKNPVTSRDSSEIGYWDLINNYVGSGITWGTPDGSKPYANATNWISTKVFPESLGYIYTVTPAAQVKAKVIATAGAGKNLAE	soluble
MIKQNSFVPYPEAMLPKGFKYPQSYLKLAQSTHAINYDEQYSFPWWFENAESNISEVIDIYFEITGIPNLLPFARNQEWAACFDISDKSGNPKIIVVNLDNTKYYETFENFDTWLKEAENDGW	soluble
MGSDKIHHHHHHMTRKFGEIAFTPEVQAAQEERGSRQTYDRYIANGPANDTITPNIAKFIAQLEGFYLGTVSSNGYPYIQFRGGSPGFLKVLDEKTLGFADFSGNLQYITVGNLSSNDKAFLFLMDYRHRQRIKIWGRAEYIEGESSLLEQVRVADYPAQVERAILFHVEATSENCPQHIPVRYSEREVKAMMAPLENRIAELEQQLSEQNSSSKTGKQLPSRD	not soluble
MGSDKIHHHHHHMTPRPVSSVARLVEDNAQDFLRAVQAKLLTLAPQARGHFPTADDATHISIAEMVSALLEGTGEEGKVDDKTLEFFKEAALDARRFGLTPEMHSALGEAVRSELLSLCEDLPFENVLFAERAIAATTAVSVEAVREADEAHIPASYQAEIVEVEKRSRRFTVVRMQAETQLPYLPGQYLAATADFLPNTWRYLCPSIPTNEWGQVEFHIQSDADDIAGLLATTRLGDKWRLGPGRGDFGQSKISSGNDLLFIAHGTGLAPLRAYMFELMNQAAPPRLHFFVGADYPGELYELTGMWNFAAASPWLSVVPVSTHDKDAWWVQATEASQPPRGLHLHQTGSMAKIVTEAGAWADRDVLIAGPESWARDVRRAMIRRGTPAQQIEILGF	not soluble
MGSDKIHHHHHHMNEKEYEERLRIETIDIQHLYNAFSHYNRYEPTPYAALEELCAVYPFDYTDTVIDFGCGKGRLNFYLHDRFDCSVIGVEMNGQFYEDALMNQVTYMKKMKRRRGSIRFEHTYAEAYPIPDDVTKCYFFNPFSVQIFMKVVDQILASVERHPRPVDLILYYPADEYRYYLENQTIFEQVEEVRLKELFEKNHDERFVIYRVNLSQEVPKRV	not soluble
MKPRVEILMSTYNGEKFLAEQLDSILAQTHQYFVLTVRDDGSKDGTPDILSRYAATDERITYCVQENRGVVGSFYWLLKNSSPLSNYVAFSDQDDVWLPNKLERALDVLSRYDETLPLLYCSRVEYVSAGLGHLDDSPMMVRPVCLNNALIQNVATGCTVVMNKAARDLLLEREWPPQVLMHDWWSYIVVSAFGKVVYDDFVSIKYRQHGGNVIGGTVSFVSDYRSRIINFLSRRRKGVFGCYDQAYSFWLGYKDELKGESRGIVSQFIESKRSFLSRLNYLTSSQRVYRHRFIDDVLVRLLILSNKYLEHHHHHH	not soluble
MGHHHHHHSHMKIELSMQPWNPGYSSEGATAQETYTCPKMIEMEQAEAQLAELDLLASMFPGENELIVNDQLAVAELKDCIEKKTMEGRSSKVYFTINMNLDVSDEKMAMFSLACILPFKYPAVLPEITVRSVLLSRSQQTQLNTDLTAFLQKHCHGDVCILNATEWVREHASGYVSRDTSSSPTTGSTVQSVDLIFTRLWIYSHHIYNKCKRKNILEWAKELSLSGFSMPGKPGVVCVEGPQSACEEFWSRLRKLNWKRILIRHREDIPFDGTNDETERQRKFSIFEEKVFSVNGARGNHMDFGQLYQFLNTKGCGDVFQMFFGVEGQ	not soluble
MTTCLLDIDQQQSVLGAGYHEPRAYSPYGGMRVVPVSALAFCGQHLDPLTGSYPLGNGHRFYRPSLRRFISPDVLSPFGKGGLNAYAYCQGDPVNFADPSGRFPAIIAPVRNLVTGVINLGISAVKMYRNYRTGRDFALNSGYPASRSGVFTYGTSEHAVARWSVADKVVSAAGGISASLSIGTATARLITPESEVLAWVDFGVASFATVLSAYELYGLATSSAERRYPIQPVAYEIRTGVQPLEHHHHHH	soluble
PISNIFAGLLFYVLSDYVTEDTGIRITRAELEKTIVEHGGKLIYNVILKRHSIGDVRLISCKTTTECKALIDRGYDILHPNWVLDCIAYKRLILIEPNYCFNVSQKMRAVAEKRVDCLGDSFENDISETKLSSLYKSQLSLPPMGELEIDSEVRRFPLFLFSNRIAYVPRRKISTEDDIIEMKIKLFGGKITDQQSLCNLIIIPYTDPILRKDCMNEVHEKIKEQIKASDTIPKIARVVAPEWVDHSINENCQVPEEDFPVVNY	soluble
MKHTLPDLPFDYADLEPVISHEIMQLHHQKHHATYVNNLNQIEEKLHEAVSKGNLKEAIALQPALKFNGGGHINHSIFWTNLAKDGGEPSKELMDTIKRDFGSLDNLQKRLSDITIAVQGSGWGWLGYCKKDKILKIATCANQDPLEGMVPLFGIDVWEHAYYLQYKNVRPDYVHAIWKIANWKNISERFANARQ	soluble
MNTNNALMQRRHNAVPRGVGQIHPIFAERAENCRVWDVEGREYLDFAGGIAVLNTGHLHPGIVSAVEAQLKKLSHTCFQVLAYEPYLALCERMNQKVPGDFAKKTLLVTTGSEAVENAVKIARAATKRSGAIAFSGAYHGRTHYTLSLTGKVHPYSAGMGLMPGHVYRALYPCPLHNISDDDAIASIERIFKNDAAPEDIAAIIIEPVQGEGGFYAASPAFMQRLRALCDQHGIMLIADEVQSGAGRTGTLFAMEQMGVAADITTFAKSIAGGFPLAGVTGRADVMDAIAPGGLGGTYAGNPIACAAALAVLDIFEQENLLQKANTLGKTLRDGLMEIAETHREIGDVRGLGAMIAIELFENGDPGKPNAALTADIVTRAREKGLILLSCGPYYNILRILVPLTIEASQIRQGLEIIAQCFDEAKQA	not soluble
MVPELMFDEPRPGRPPRHLADLDAAGRASAVAELGLPAFRAKQLAHQYYGRLIADPRQMTDLPAAVRDRIAGAMFPNLLTASADITCDAGQTRKTLWRAVDGTMFESVLMRYPRRNTVCISSQAGCGMACPFCATGQGGLTRNLSTAEILEQVRAGAAALRDDFGDRLSNVVFMGMGGAAGQLRQGVGRSSAHYRAAAVRFRDFGPRGDGVDGGSGPCYPQPCRRAARRDPGAVAARPRRRVARYTSSGQQPVEDQRSARCGPVLRQCDRATGVY	soluble
MGSDKIHHHHHHMNEREICERIAEILNLEHDCSKGIDDLLKILEYEINEYRKSLEEQAMFMEAQIEELSRSYEEISTLLEISEIFGTFEFPLNLQDKLEKVIRLLRNVIKFESYLVHLESELTVGDLNREEIEPEIGNPEKTVLIEPGKSEKFSNLLFVPIKGNKYYGYVCFVGKEDGGVFTAGDRKIAEMTARYIASALDRLDFLKKEIERERLEEQLNIARQIQTNLLPRKIPEIGFVEADACSQPAVQVGGDYYDFFVSQEKRFLTVVGDVAGKSVPAALLMSAVRSYLKVLVTTCPDLEKLVNRLNTILCEDMTNDRFVTMAFIEISPDGTLNLINAGHNPVYFLHKGELVKIEASAIPIGITEWEYKKHTIHLKPDTFVISYSDGLTEARNEAGEEFGYERLEKILREFKGETPAELLEALRKRVKSFMGDAQQHDDMTIVVLKYKGQQEVE	not soluble
GSSGGPNVPELILQLLQLEPEEDQVRARIVGCLQEPAKSRSDQPAPFSLLCRMADQTFISIVDWARRCMVFKELEVADQMTLLQNSWSELLVLDHIYRQVQYGKEDSILLVTGQEVELSTVAVQAGSLLHSLVLRAQELVLQLHALQLDRQEFVCLKFLILFSLDVKFLNNHSLVKDAQEKANAALLDYTLSHYPHSGDKFQQLLLSLVEVRALSMQAKEYLYHKHLGNEMPRNNLLIEMLQAKQT	soluble
MQDTTLLQMITDDMVSARQLLELLQAESLILHGRDMSEMEQVLAQKQALVILLDQHGRKRSQVLAGMGLPANRSGLQQLASQSEVGEQLLTSSDELNALINECQTLNDQNGSLIQLQQISTAHQLRILNGGETPTLYDARGSTALRAKPRPLSQA	not soluble
MGSDKIHHHHHHMSKKTYYYHSESEDLVSSAQQDFQLPDDYQFFREGVAWQFWNGLVRSLACAFAWLYSRLFLLVKVKGKEKLRPFKKQGYFVYGNHTQMLGDPFNPMTIVNPYHYYALAAQANWGIPFLGKYVIPAAGLPVGKNIKQSIRLLKDVKYAYEEKQAAIVIYPEAHLWPYYTKIRPFPATSFNFPVSLKAPAFAMTTTYQPCRWRKRPKITVYIDGPFYPDEKLGKKAAQEKLHGEIAKSMQERAKLSTCEYCSYVKIDSKN	not soluble
MELPFSQACENNKDPILEVLKTAFSDCTRVLEVGSGTGQHAVYFASQLPNIHWQASDQKEYLPGVTARIKQEGVTNQPLPVEFDVFADAPGGTFNALFTANTCHIMPKEGVERLFEHLEGDLSSVERLCIYGPFNDNGHFTSDSNRGFHQSLQSRNSDMGIRDWQWITELANQQGFELKKIHPLPANNQLLEFQRLEHHHHHH	soluble
GKNTPKSAIIYTTMGDIHISLFYKECKKTVQNFSVHSINGYYNNCIFHRVIKHFMVQTGDPSGDGTGGESIWGNEFEDEFFDHLNHSKPFMVSMANCGPNTNGSQFFITTVPCPWLDFKHTVFGKVTQGSKIVLDIEKVRTDKRDKPLEDIKILNIKINN	soluble
